This note sets out measurements from the supplement of paper PMC7877785.

This series is described as follows: self-splicing fitness, log relative to wild type (ln ratio); higher = more splicing; Tetrahymena group I intron in knt gene, E. coli kanamycin selection, DiMSum; sequences stand for … in CUCUCU…GGAGGGAAAAGUUAUCAGGCAUGCACCUGGUAGCUAGUCUUUAAACCAAUAGAUUGCAUCGGUUUAAAAGGCAAGACCGUCAAAUUGCGGGAAAGGGGUCAACAGCCGUUCAGUACCAAGUCUCAGGGGAAACUUUGAGAUGGCCUUGCAAAGGGUAUGGUAAUAAGCUGACGGACAUGGUCCUAACCACGCAGCCAAGUCCUAAGUCAACAGAUCUUCUGUUGAUAUGGAUGCAGUUCACAGACUAAAUGUCGGUCGGGGAAGAUGUAUUCUUCUCAUAAGAUAUAGUCGGACCUCUCCUUAAUGGGAGCUAGCGGAUGAAGUGAUGCAACACUGGAGCCGCUGGGAACUAAUUUGUAUGCGAAAGUAUAUUGAUUAGUUUUGGAGUACUCGUGGUCG
In outline: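 A randomised library covering all eight P1ex-region intron nucleotides was built with the intron in the knt kanamycin-resistance gene on pET-22b(+) and held in E. coli BL21(DE3). Cells were grown overnight at 37°C or 30°C on LB agar, with or without 25 μg/mL kanamycin, plus 100 μg/mL carbenicillin, 50 μM IPTG and 0.2% rhamnose, and pooled colonies were amplicon-sequenced on an Illumina HiSeq 2500. DiMSum fitness is the error-weighted combination of wild-type-normalised replicate fold changes, kanamycin versus none.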

± gives the uncertainty stated by the source.

On to CGAAAGCAAUAUUACGUAAG, for which the “self-splicing fitness (ln)” value runs as follows: (30 °C) -0.262 ± 0.049; (37 °C) -0.000374 ± 0.07.

For the sequence UUAGAGCAAUAUUACGUUCG, the “self-splicing fitness (ln)” value (30 °C) was -1.22 ± 0.1 and the “self-splicing fitness (ln)” value (37 °C) was -0.767 ± 0.15.

CGCAAGCAAUAUUACGAAUG: the “self-splicing fitness (ln)” value is, setting by setting: (30 °C) -1.4 ± 0.1; (37 °C) -0.303 ± 0.1.

Consider GCCCAGCAAUAUUACGAUUC, for which the “self-splicing fitness (ln)” value is -1.56 ± 0.074 (30 °C) and -0.274 ± 0.09 (37 °C). With UAGGAGCAAUAUUACGUCAA, for the setting “37 °C”, the “self-splicing fitness (ln)” value is -2.27 ± 0.46. For the sequence ACGAAGCAAUAUUACGAAGU, the “self-splicing fitness (ln)” value reads like this: (30 °C) -3.44 ± 0.16; (37 °C) -2.86 ± 0.2. As to CUGGAGCAAUAUUACGACAG, the “self-splicing fitness (ln)” value is -4.83 ± 0.31 (30 °C) and -2.42 ± 0.49 (37 °C). The like results for GCACAGCAAUAUUACGUGGG were, in that order, -1.53 ± 0.059 and -1.47 ± 0.067.

Regarding GCUGAGCAAUAUUACGGUUG, the “self-splicing fitness (ln)” value is, setting by setting: (30 °C) -3.64 ± 0.31; (37 °C) -2.67 ± 0.35.

Regarding CCUAAGCAAUAUUACGCGAC, the “self-splicing fitness (ln)” value (30 °C) was -2.41 ± 0.3 and the “self-splicing fitness (ln)” value (37 °C) was -3.61 ± 0.39. For GCACAGCAAUAUUACGCAAG the same measures were -3.59 ± 0.24 and -2.51 ± 0.19. The like results for AAUUAGCAAUAUUACGUUAG were, in that order, -4.03 ± 0.28 and -3.13 ± 0.26. For AGGAAGCAAUAUUACGUCAA the same measures were -3.36 ± 0.22 and -3.71 ± 0.27. For UUCCAGCAAUAUUACGGUCC, the “self-splicing fitness (ln)” value is -1.79 ± 0.15 (30 °C) and -2.18 ± 0.17 (37 °C). As for GCUCAGCAAUAUUACGUCGA, the “self-splicing fitness (ln)” value by setting is: (30 °C) -3.22 ± 0.17; (37 °C) -2.45 ± 0.16. Regarding GGUGAGCAAUAUUACGUUGC, the “self-splicing fitness (ln)” value (30 °C) is -3.27 ± 0.35. For GGUAAGCAAUAUUACGCGAG, the “self-splicing fitness (ln)” value by setting is: (30 °C) -2.95 ± 0.15; (37 °C) -0.704 ± 0.09. Regarding UAGCAGCAAUAUUACGCGCG, the “self-splicing fitness (ln)” value reads like this: (30 °C) -1.09 ± 0.17; (37 °C) 0.624 ± 0.17. For CACCAGCAAUAUUACGGGCC, the “self-splicing fitness (ln)” value is -3.9 ± 0.19 (30 °C) and -1.73 ± 0.14 (37 °C). For CGCGAGCAAUAUUACGGCCU the same measures were -2.69 ± 0.26 and -1.65 ± 0.22. With GCUAAGCAAUAUUACGUUAC, the “self-splicing fitness (ln)” value (30 °C) is -3.73 ± 0.26 and the “self-splicing fitness (ln)” value (37 °C) was -1.01 ± 0.16. For CGCAAGCAAUAUUACGAAAA the same measures were -2.47 ± 0.38 and -2.96 ± 0.4. In the case of AAAAAGCAAUAUUACGAUUG, the “self-splicing fitness (ln)” value was -1.86 ± 0.093 (30 °C) and -1.67 ± 0.13 (37 °C).

For GUGGAGCAAUAUUACGAUAU, the “self-splicing fitness (ln)” value is, setting by setting: (30 °C) -1.83 ± 0.17; (37 °C) -0.975 ± 0.15. The like results for CAAAAGCAAUAUUACGGGCG were, in that order, -0.0633 ± 0.084 and 0.608 ± 0.11. The like results for GGGAAGCAAUAUUACGAGCG were, in that order, -1.41 ± 0.12 and -0.447 ± 0.15.

Regarding GGUAAGCAAUAUUACGACUC, the “self-splicing fitness (ln)” value was 0.295 ± 0.12 (30 °C) and -0.605 ± 0.18 (37 °C). As for GUUCAGCAAUAUUACGGAGA, the “self-splicing fitness (ln)” value (37 °C) was -1.33 ± 0.29. As for CAGUAGCAAUAUUACGUGAG, the “self-splicing fitness (ln)” value by setting is: (30 °C) -1.18 ± 0.067; (37 °C) -0.54 ± 0.12. For GCGUAGCAAUAUUACGCCAU the same measures were -2.97 ± 0.31 and -2.93 ± 0.47. The like results for UGCCAGCAAUAUUACGUUUU were, in that order, -3.79 ± 0.18 and -2.56 ± 0.2.

Consider UCCCAGCAAUAUUACGGCCA, for which the “self-splicing fitness (ln)” value (30 °C) was -0.679 ± 0.095 and the “self-splicing fitness (ln)” value (37 °C) was -0.115 ± 0.12. The like results for GUAUAGCAAUAUUACGUGCU were, in that order, -2.77 ± 0.16 and -1.91 ± 0.22.

In the case of GUAUAGCAAUAUUACGAUGA, the “self-splicing fitness (ln)” value (30 °C) is -1.62 ± 0.16 and the “self-splicing fitness (ln)” value (37 °C) is -0.697 ± 0.14. UCACAGCAAUAUUACGAGAC: the “self-splicing fitness (ln)” value was -4.56 ± 0.46 (30 °C) and -2.61 ± 0.2 (37 °C). For CUAUAGCAAUAUUACGAUUC the same measures were -3.51 ± 0.26 and -1.71 ± 0.21. Consider UGAUAGCAAUAUUACGCGGA, for which the “self-splicing fitness (ln)” value reads like this: (30 °C) -2.4 ± 0.48; (37 °C) -0.465 ± 0.29. With UGUCAGCAAUAUUACGGAAA, the “self-splicing fitness (ln)” value was -1.11 ± 0.088 (30 °C) and -0.145 ± 0.086 (37 °C). The like results for ACCCAGCAAUAUUACGUAUC were, in that order, -2.25 ± 0.077 and -1.63 ± 0.092. Regarding AAACAGCAAUAUUACGUGUU, the “self-splicing fitness (ln)” value (30 °C) was -4.29 ± 0.15 and the “self-splicing fitness (ln)” value (37 °C) is -2.24 ± 0.11. For CACAAGCAAUAUUACGAGCA the same measures were -2.96 ± 0.2 and -2.28 ± 0.17. Turning to CACUAGCAAUAUUACGGAGC, the “self-splicing fitness (ln)” value (30 °C) was -4.52 ± 0.28 and the “self-splicing fitness (ln)” value (37 °C) is -2.8 ± 0.15. The like results for CGGUAGCAAUAUUACGAUAU were, in that order, -3.58 ± 0.31 and -1.33 ± 0.24. With CGUCAGCAAUAUUACGAAUG, the “self-splicing fitness (ln)” value was -0.494 ± 0.077 (30 °C) and -0.0535 ± 0.093 (37 °C). For the sequence ACCCAGCAAUAUUACGCUUU, the “self-splicing fitness (ln)” value by setting is: (30 °C) -0.704 ± 0.049; (37 °C) 0.0854 ± 0.064. In the case of AUGCAGCAAUAUUACGUUAU, the “self-splicing fitness (ln)” value (30 °C) was -2.45 ± 0.079 and the “self-splicing fitness (ln)” value (37 °C) was -1.24 ± 0.078. With CUAUAGCAAUAUUACGGGGC, under “37 °C”, the “self-splicing fitness (ln)” value was -1.7 ± 0.33. CUUGAGCAAUAUUACGUGUC: the “self-splicing fitness (ln)” value is -2.02 ± 0.22 (30 °C) and -2.28 ± 0.26 (37 °C). In the case of UCAGAGCAAUAUUACGUCAU, the “self-splicing fitness (ln)” value (30 °C) is -3.84 ± 0.35. Turning to CCCUAGCAAUAUUACGUAGU, the “self-splicing fitness (ln)” value was -3.63 ± 0.18 (30 °C) and -2.51 ± 0.17 (37 °C). As to UCCCAGCAAUAUUACGUUUG, the “self-splicing fitness (ln)” value was -3.67 ± 0.11 (30 °C) and -2.91 ± 0.15 (37 °C). For UGUGAGCAAUAUUACGAUUA the same measures were -1.17 ± 0.22 and -1.53 ± 0.2. Regarding AGUAAGCAAUAUUACGCUUA, the “self-splicing fitness (ln)” value by setting is: (30 °C) -3.07 ± 0.16; (37 °C) -1.44 ± 0.15. The like results for UCUGAGCAAUAUUACGAGAG were, in that order, -4.12 ± 0.26 and -2.69 ± 0.45. The like results for CUGAAGCAAUAUUACGGGAU were, in that order, -1.65 ± 0.076 and -1.07 ± 0.11. In the case of GGUUAGCAAUAUUACGGCGC, the “self-splicing fitness (ln)” value was 0.645 ± 0.28 (30 °C) and -0.634 ± 0.25 (37 °C). The like results for ACUUAGCAAUAUUACGAUGG were, in that order, -2.19 ± 0.099 and -1.16 ± 0.12. For CAAAAGCAAUAUUACGGCUG the same measures were -1.3 ± 0.088 and -0.592 ± 0.11.

On to AGGCAGCAAUAUUACGCCAC, for which the “self-splicing fitness (ln)” value is -3.45 ± 0.18 (30 °C) and -2.48 ± 0.3 (37 °C). For ACUGAGCAAUAUUACGUCUC the same measures were -3.61 ± 0.2 and -3.51 ± 0.33. Turning to GUGGAGCAAUAUUACGAGAG, the “self-splicing fitness (ln)” value was -3.58 ± 0.22 (30 °C) and -2.7 ± 0.38 (37 °C).
